In publication PMC9575183 (Developmental cell, 2020):

Molecular target: T1, Recombinant GST-RILP wt, full length (human, UniProt Q96NA2 1-401)
T1 sequence (looked up): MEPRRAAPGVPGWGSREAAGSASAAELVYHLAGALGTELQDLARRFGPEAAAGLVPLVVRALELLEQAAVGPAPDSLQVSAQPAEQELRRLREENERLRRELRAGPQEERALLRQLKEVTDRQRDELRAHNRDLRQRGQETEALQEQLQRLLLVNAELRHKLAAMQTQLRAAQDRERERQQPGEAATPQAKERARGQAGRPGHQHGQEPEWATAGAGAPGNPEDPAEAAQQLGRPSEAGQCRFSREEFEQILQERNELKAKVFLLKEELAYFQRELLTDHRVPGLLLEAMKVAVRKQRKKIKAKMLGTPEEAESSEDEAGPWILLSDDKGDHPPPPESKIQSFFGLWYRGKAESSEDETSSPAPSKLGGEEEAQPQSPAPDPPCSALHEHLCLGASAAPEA
Assay: pull-down

- binding result: binds
B1: Recombinant human His-tagged ATG5 (natural protein, UniProt Q9H1Y0 1-275, looked up)
chain: MTDDKDVLRDVWFGRIPTCFTLYQDEITEREAEPYYLLLPRVSYLTLVTDKVKKHFQKVMRQEDISEIWFEYEGTPLKWHYPIGLLFDLLASSSALPWNITVHFKSFPEKDLLHCPSKDAIEAHFMSCMKEADALKHKSQVINEMQKKDHKQLWMGLQNDRFDQFWAINRKLMEYPAEENGFRYIPFRIYQTTTERPFIQKLFRPVAADGQLHTLGDLLKEVCPSAIDPEDGEKKNQVMIHGIEPMLETPLQWLSEHLSYPDNFLHISIIPQPTD
